Biological target: the molecule itself
Test: SEC

Protein | stoichiometry N
D2 domain of EccCb1 (35-316 residues), wild type (domain or fragment) NPVPLNELIARDRRQPLRFALGIMDEPRRHLQDVWGVDVSGAGGNIGIGGAPQTGKSTLLQTMVMSAAATHSPRNVQFYCIDLGGGGLIYLENLPHVGGVANRSEPDKVNRVVAEMQAVMRQRETTFKEHRVGSIGMYRQLRDDPSQPVASDPYGDVFLIIDGWPGFVGEFPDLEGQVQDLAAQGLAFGVHVIISTPRWTELKSRVRDYLGTKIEFRLGDVNETQIDRITREIPANRPGRAVSMEKHHLMIGVPRFDGVHSADNLVEAITAGVTQIASQHTE | 2
D2 domain of EccCb1 (35-316 residues), S91A mutant (domain or fragment) NPVPLNELIARDRRQPLRFALGIMDEPRRHLQDVWGVDVSGAGGNIGIGGAPQTGKATLLQTMVMSAAATHSPRNVQFYCIDLGGGGLIYLENLPHVGGVANRSEPDKVNRVVAEMQAVMRQRETTFKEHRVGSIGMYRQLRDDPSQPVASDPYGDVFLIIDGWPGFVGEFPDLEGQVQDLAAQGLAFGVHVIISTPRWTELKSRVRDYLGTKIEFRLGDVNETQIDRITREIPANRPGRAVSMEKHHLMIGVPRFDGVHSADNLVEAITAGVTQIASQHTE | 2
D2 domain of EccCb1 (35-316 residues), Q87A mutant (domain or fragment) NPVPLNELIARDRRQPLRFALGIMDEPRRHLQDVWGVDVSGAGGNIGIGGAPATGKSTLLQTMVMSAAATHSPRNVQFYCIDLGGGGLIYLENLPHVGGVANRSEPDKVNRVVAEMQAVMRQRETTFKEHRVGSIGMYRQLRDDPSQPVASDPYGDVFLIIDGWPGFVGEFPDLEGQVQDLAAQGLAFGVHVIISTPRWTELKSRVRDYLGTKIEFRLGDVNETQIDRITREIPANRPGRAVSMEKHHLMIGVPRFDGVHSADNLVEAITAGVTQIASQHTE | 2
D2 domain of EccCb1 (35-316 residues), K90A mutant (domain or fragment) NPVPLNELIARDRRQPLRFALGIMDEPRRHLQDVWGVDVSGAGGNIGIGGAPQTGASTLLQTMVMSAAATHSPRNVQFYCIDLGGGGLIYLENLPHVGGVANRSEPDKVNRVVAEMQAVMRQRETTFKEHRVGSIGMYRQLRDDPSQPVASDPYGDVFLIIDGWPGFVGEFPDLEGQVQDLAAQGLAFGVHVIISTPRWTELKSRVRDYLGTKIEFRLGDVNETQIDRITREIPANRPGRAVSMEKHHLMIGVPRFDGVHSADNLVEAITAGVTQIASQHTE | 2
D2 domain of EccCb1 (35-316 residues), T92A mutant (domain or fragment) NPVPLNELIARDRRQPLRFALGIMDEPRRHLQDVWGVDVSGAGGNIGIGGAPQTGKSALLQTMVMSAAATHSPRNVQFYCIDLGGGGLIYLENLPHVGGVANRSEPDKVNRVVAEMQAVMRQRETTFKEHRVGSIGMYRQLRDDPSQPVASDPYGDVFLIIDGWPGFVGEFPDLEGQVQDLAAQGLAFGVHVIISTPRWTELKSRVRDYLGTKIEFRLGDVNETQIDRITREIPANRPGRAVSMEKHHLMIGVPRFDGVHSADNLVEAITAGVTQIASQHTE | 2
D3 domain of EccCb1 (349-580 residues), wild type (domain or fragment) EIPIGLRETDLTPAHCHMHTNPHLLIFGAAKSGKTTIAHAIARAICARNSPQQVRFMLADYRSGLLDAVPDTHLLGAGAINRNSASLDEAVQALAVNLKKRLPPTDLTTAQLRSRSWWSGFDVVLLVDDWHMIVGAAGGMPPMAPLAPLLPAAADIGLHIIVTCQMSQAYKATMDKFVGAAFGSGAPTMFLSGEKQEFPSSEFKVKRRPPGQAFLVSPDGKEVIQAPYIEPP | 2

Reference: doi:10.1101/2021.05.31.446396 (bioRxiv, 2021)
